T1: biotin-Ly6E-rat IgG2b Fc (human | rat, biotin)
T1 chain: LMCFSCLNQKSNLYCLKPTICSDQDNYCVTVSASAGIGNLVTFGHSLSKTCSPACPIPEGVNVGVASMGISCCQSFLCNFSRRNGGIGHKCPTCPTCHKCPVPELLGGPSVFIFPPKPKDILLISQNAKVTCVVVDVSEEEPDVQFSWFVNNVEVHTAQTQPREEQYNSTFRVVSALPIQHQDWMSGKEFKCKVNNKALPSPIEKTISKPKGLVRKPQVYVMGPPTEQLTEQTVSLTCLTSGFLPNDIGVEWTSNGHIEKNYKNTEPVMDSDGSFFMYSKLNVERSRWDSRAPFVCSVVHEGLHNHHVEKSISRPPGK


Assays:
Details in all cases: both partners purified
[1] = target: T2, human IgG Fc (Biotin-SP-ChromPure Human IgG, Fc fragment) (human, biotin (Biotin-SP)); assay: ELISA; […], room temperature; […]
[2] = target: T2, human IgG Fc (Biotin-SP-ChromPure Human …); assay: SPR; […]; Biacore S200, […] (PBS with 0.05% Tween 20, pH 7.4); […]
biotin-Ly6E-rat IgG2b Fc = target: T1, biotin-Ly6E-rat IgG2b Fc; assay: as above
biotin-PDGF-bb = target: T3, biotin-PDGF-bb (human, UniProt P01127 82-190, biotin); assay: as above
T3 construct: also called human platelet-derived growth factor

[3] = target: T2, human IgG Fc (Biotin-SP-ChromPure Human …); assay: SPR

T3 sequence (P01127 82-190): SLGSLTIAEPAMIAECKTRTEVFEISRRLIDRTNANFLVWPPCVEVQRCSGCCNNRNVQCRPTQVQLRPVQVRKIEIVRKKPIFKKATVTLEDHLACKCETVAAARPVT

Row | Binder | IC50 [1] [nM] | Kd [2] [nM] | also measured
1 | GCGYWYMQWFCKQDSDCLAGCVCRPKPECG (designed binder) [Ig-EET-4] | 823 | 948 | –
2 | GCQAHYWYRVWFCKQDSDCLAGCVCGPNGFCG (designed binder) [Ig-EET-1] | 447 | 228 | –
3 | GCAIYHMGWMFQCKQDSDCLAGCVCGPNGFCG (designed binder) [L-EET-7] | – | – | Kd (biotin-Ly6E-rat IgG2b Fc): 22 nM
4 | GCAFEGESCNVQFYPCCVSMKLMCIPGNPDGTCYYL (designed binder) [P-AST-3] | – | – | Kd (biotin-PDGF-bb): > 50000 nM
5 | VGECVRGRCSSISCCSQFGYCGKGPKYCG (designed binder) [Ig-AMP-4] | 151 | > 1000 | –
6 | GCQIYQSQWSYLCKQDSDCLAGCVCGPNGFCG (designed binder) [L-EET-8] | – | – | Kd (biotin-Ly6E-rat IgG2b Fc): > 20000 nM
7 | GECKGKGAKCSSISIHDAHCCTGSCRSGKC (designed binder) [recombinant Ig-CON-5 after TEV protease digestion] | – | – | Kd [3]: 10 nM
8 | CKGKGAKCSRLMYDCCTGSCRSGKC [WT CON] | – | > 20000 | –
9 | VGECVRGRCSKISCCSQFGYCGKGPKYCG (designed binder) [Ig-AMP-1] | 55 | 243 | –
10 | VGECVRGRCSQISCCSQFGYCGKGPKYCG (designed binder) [Ig-AMP-3] | 62 | 353 | –
11 | VGECVRGRCSAISCCSQFGYCGKGPKYCG (designed binder) [Ig-AMP-2] | 41 | – | –
12 | GCNMYSGPWRYFCKQDSDCLAGCVCGPNGFCG (designed binder) [L-EET-5] | – | – | Kd (biotin-Ly6E-rat IgG2b Fc): > 20000 nM

From publication PMC10977726 (PLOS ONE, 2024)
